# Patent US20110064733A1
# Assays:
# [1] = biological target: Muc1 as expressed by DS6 negative & CM1 positive cell lines (KLE, OVCAR3, SKOV3), without the CA6 glycotope (human) (UniProt P15941); test: flow cytometry on OVCAR3 cells
# [2] = biological target: Muc1 as expressed by DS6 negative & CM1 positive cell lines (KLE, OVCAR3, SKOV3), without the CA6 glycotope (human) (UniProt P15941); test: flow cytometry on KLE cells
# [3] = biological target: Muc1 as expressed by DS6 negative & CM1 positive cell lines (KLE, OVCAR3, SKOV3), without the CA6 glycotope (human) (UniProt P15941); test: flow cytometry on SKOV3 cells
# [4] = biological target: Muc1 as expressed by DS6 negative & CM1 positive cell lines (KLE, OVCAR3, SKOV3), without the CA6 glycotope (human) (UniProt P15941); test: flow cytometry on SKOV3 cells (DS6 negative)
# [5] = biological target: Muc1 as expressed by DS6 negative & CM1 positive cell lines (KLE, OVCAR3, SKOV3), without the CA6 glycotope (human) (UniProt P15941); test: flow cytometry on OVCAR3 cells (DS6 negative)
# [6] = biological target: Muc1 as expressed by DS6 negative & CM1 positive cell lines (KLE, OVCAR3, SKOV3), without the CA6 glycotope (human) (UniProt P15941); test: flow cytometry on KLE cells (DS6 negative)
MMF (maximum mean relative fluorescence) (relative fluorescence) [4],MMF (maximum mean relative fluorescence) (relative fluorescence) [5],MMF (maximum mean relative fluorescence) (relative fluorescence) [6],Substance,MMF (maximum mean relative fluorescence) (relative fluorescence) [1],MMF (maximum mean relative fluorescence) (relative fluorescence) [2],MMF (maximum mean relative fluorescence) (relative fluorescence) [3]
,,,CM1 antibody (Muc1 VNTR antibody),192,562,49.4
17.5,21.2,27.5,murine anti-CA6 monoclonal antibody DS6,,,
